In data set [1] the test system is T1, LPG10159 (Contaminated/multiple).
T1 sequence: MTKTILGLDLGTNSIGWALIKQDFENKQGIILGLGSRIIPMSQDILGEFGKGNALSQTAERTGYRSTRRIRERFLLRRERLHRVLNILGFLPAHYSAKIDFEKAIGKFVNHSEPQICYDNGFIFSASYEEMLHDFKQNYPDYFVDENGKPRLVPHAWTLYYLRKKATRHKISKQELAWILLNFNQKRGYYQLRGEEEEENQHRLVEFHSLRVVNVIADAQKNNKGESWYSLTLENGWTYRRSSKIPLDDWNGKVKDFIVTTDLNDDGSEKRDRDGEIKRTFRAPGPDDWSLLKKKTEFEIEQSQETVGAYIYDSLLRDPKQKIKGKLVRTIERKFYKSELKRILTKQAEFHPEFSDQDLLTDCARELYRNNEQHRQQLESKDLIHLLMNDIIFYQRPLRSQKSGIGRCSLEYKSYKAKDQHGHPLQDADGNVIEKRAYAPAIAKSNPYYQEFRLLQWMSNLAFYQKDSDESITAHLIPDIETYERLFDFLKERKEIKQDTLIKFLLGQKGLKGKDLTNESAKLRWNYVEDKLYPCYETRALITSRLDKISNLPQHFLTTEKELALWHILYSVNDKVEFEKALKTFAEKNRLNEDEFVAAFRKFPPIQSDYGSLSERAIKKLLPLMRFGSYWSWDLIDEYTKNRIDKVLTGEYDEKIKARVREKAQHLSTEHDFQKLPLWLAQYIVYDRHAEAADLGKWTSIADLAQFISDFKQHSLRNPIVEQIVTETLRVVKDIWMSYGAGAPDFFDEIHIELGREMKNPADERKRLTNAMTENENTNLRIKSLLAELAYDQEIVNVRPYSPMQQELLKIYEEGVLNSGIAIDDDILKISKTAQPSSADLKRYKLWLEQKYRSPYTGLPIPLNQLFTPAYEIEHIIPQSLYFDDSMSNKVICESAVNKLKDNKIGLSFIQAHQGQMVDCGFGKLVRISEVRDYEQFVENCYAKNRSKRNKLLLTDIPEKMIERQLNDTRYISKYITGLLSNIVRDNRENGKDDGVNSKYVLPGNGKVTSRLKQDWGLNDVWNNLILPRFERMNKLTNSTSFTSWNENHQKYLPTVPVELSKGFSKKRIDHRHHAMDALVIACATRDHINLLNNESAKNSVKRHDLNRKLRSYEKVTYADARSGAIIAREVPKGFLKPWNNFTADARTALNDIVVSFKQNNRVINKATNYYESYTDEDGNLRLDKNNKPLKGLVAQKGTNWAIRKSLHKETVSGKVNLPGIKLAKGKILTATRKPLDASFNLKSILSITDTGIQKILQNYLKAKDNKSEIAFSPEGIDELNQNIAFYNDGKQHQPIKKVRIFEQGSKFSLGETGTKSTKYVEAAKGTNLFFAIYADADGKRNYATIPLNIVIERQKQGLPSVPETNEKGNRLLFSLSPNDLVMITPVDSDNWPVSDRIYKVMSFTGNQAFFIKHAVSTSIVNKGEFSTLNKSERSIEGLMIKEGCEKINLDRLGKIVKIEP
The experiment in a line: cleavage_in_vitro. As to conditions: PAM SEQ ID 83.

Data set [2] deals with T2, LPG10134 (Brevundimonas vesicularis).
T2 sequence: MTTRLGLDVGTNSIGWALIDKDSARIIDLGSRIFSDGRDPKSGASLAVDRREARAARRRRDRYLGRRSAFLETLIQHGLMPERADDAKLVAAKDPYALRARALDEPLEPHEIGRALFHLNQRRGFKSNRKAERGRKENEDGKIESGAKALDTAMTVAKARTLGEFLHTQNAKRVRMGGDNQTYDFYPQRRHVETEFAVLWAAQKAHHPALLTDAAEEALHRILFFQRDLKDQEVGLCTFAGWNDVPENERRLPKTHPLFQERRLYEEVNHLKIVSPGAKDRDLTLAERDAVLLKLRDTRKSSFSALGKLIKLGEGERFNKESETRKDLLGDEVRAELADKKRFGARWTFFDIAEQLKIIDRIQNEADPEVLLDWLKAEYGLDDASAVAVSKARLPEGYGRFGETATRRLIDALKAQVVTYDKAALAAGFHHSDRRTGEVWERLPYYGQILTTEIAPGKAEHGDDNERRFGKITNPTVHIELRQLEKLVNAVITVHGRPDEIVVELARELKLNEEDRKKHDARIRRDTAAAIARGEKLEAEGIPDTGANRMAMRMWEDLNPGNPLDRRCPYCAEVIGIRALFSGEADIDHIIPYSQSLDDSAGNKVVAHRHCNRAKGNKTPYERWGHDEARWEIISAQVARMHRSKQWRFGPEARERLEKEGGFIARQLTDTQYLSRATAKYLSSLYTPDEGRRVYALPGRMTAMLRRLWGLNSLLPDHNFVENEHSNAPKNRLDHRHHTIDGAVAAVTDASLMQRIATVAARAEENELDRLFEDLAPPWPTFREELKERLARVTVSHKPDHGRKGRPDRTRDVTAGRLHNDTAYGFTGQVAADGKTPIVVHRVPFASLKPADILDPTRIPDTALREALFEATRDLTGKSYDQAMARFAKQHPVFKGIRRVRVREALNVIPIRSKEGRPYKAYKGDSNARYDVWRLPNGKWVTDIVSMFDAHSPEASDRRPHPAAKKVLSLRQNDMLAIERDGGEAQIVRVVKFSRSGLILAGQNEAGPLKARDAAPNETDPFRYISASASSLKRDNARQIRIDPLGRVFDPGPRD
The data set is described as follows: cleavage_in_vitro. The note with it: PAM NGG; 37C 120 min.

We go through 3 sequences from patent US20240376455.

“GUUGUGAAUUGCUUUAAAGAAAGCAAUUCACAAUAAGGAUUAUUCCGUUGUGAAAACAUCUAGCGCCUCGUCUAUCUACGGGGCAUUUU / GATATAGACGTTGTGGCTGTTGTAGTAGAAATTC / GAATTTCTACTACAACAGCCACAACGTCTATATC [LPG10159 sgRNA L2 ; Library 2 target AGAAATTC]”: in data set [1], the activity (% target strand cleaved) turned out to be 2.5. For “GUUGCCGCUGGCCUUCGAUUUCUGAAAAGUCAGAAAUCGAAGGCUGGCUGUUAACAAGCAGCUAGACUGCACCAAAUAAGGGCGGGGCUACGGCCCCGUCUUUUGAGCGGACAGCAGCUUCCUAUAUCUCGUAC / GGACAGCAGCTTCCTATATCTCGTACAGGACCTC / GAGGTCCTGTACGAGATATAGGAAGCTGCTGTCC [LPG10134 sgRNA L1 ; Library 1 target AGGACCTC]”, the activity (% target strand cleaved) in data set [2] was 0. In the case of “CCAUGAUAUAGACGUUGUGGCUGUUGUAGUGUUGCCGCUGGCCUUCGAUUUCUGAAAAGUCAGAAAUCGAAGGCUGGCUGUUAACAAGCAGCUAGACUGCACCAAAUAAGGGCGGGGCUACGGCCCCGUCUUUU / GATATAGACGTTGTGGCTGTTGTAGTAGGACCTC / GAGGTCCTACTACAACAGCCACAACGTCTATATC [LPG10134 sgRNA L2 ; Library 2 target AGGACCTC]”, the activity (% target strand cleaved) in data set [2] was 0.
